# Data: IntAct's records for PubMed 18583962
# B1: Insulin gene enhancer protein ISL-1 (Mus musculus), P61372 (parent)
# chain: MGDMGDPPKKKRLISLCVGCGNQIHDQYILRVSPDLEWHAACLKCAECNQYLDESCTCFVRDGKTYCKRDYIRLYGIKCAKCSIGFSKNDFVMRARSKVYHIECFRCVACSRQLIPGDEFALREDGLFCRADHDVVERASLGAGDPLSPLHPARPLQMAAEPISARQPALRPHVHKQPEKTTRVRTVLNEKQLHTLRTCYAANPRPDALMKEQLVEMTGLSPRVIRVWFQNKRCKDKKRSIMMKQLQQQQPNDKTNIQGMTGTPMVAASPERHDGGLQANPVEVQSYQPPWKVLSDFALQSDIDQPAFQQLVNFSEGGPGSNSTGSEVASMSSQLPDTPNSMVASPIEA
# partner: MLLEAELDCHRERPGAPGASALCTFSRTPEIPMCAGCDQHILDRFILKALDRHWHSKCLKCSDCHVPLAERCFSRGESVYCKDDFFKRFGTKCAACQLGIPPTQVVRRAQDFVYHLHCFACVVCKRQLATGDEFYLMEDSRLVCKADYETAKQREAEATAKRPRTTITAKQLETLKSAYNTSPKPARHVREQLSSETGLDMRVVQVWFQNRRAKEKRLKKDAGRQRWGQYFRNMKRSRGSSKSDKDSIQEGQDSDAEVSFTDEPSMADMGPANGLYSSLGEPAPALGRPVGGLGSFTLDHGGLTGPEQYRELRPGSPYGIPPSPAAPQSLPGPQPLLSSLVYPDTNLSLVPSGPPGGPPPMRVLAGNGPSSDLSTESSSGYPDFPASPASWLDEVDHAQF
# B2: LIM domain-binding protein 1 (Mus musculus), P70662 (parent)
# chain: MSVGCACPGCSSKSFKLYSPKEPPNGNAFPPFHPGTMLDRDVGPTPMYPPTYLEPGIGRHTPYGNQTDYRIFELNKRLQNWTEECDNLWWDAFTTEFFEDDAMLTITFCLEDGPKRYTIGRTLIPRYFRSIFEGGATELYYVLKHPKEAFHSNFVSLDCDQGSMVTQHGKPMFTQVCVEGRLYLEFMFDDMMRIKTWHFSIRQHRELIPRSILAMHAQDPQMLDQLSKNITRCGLSNSTLNYLRLCVILEPMQELMSRHKTYSLSPRDCLKTCLFQKWQRMVAPPAEPARQQPSKRRKRKMSGGSTMSSGGGNTNNSNSKKKSPASTFALSSQVPDVMVVGEPTLMGGEFGDEDERLITRLENTQFDAANGIDDEDSFNNSPALGANSPWNSKPPSSQESKSENPTSQASQ
# partner: B1 partner
# B3: LIM domain-binding protein 1 (Mus musculus), P70662 (parent)
# chain: B2 chain
# partner: B1 chain
# Variants of: B1
# Settings: with lhx3_mouse Lhx3, P50481
row,effect of a mutation on the interaction,Variant
1,disrupting interaction,A267G

# Variants of: B1
# Settings: with lhx3_mouse Lhx3, P50481
# Remark: another data set of the same source
row,effect of a mutation on the interaction,Variant
1,disrupting interaction,M265A

# Variants of: B1
# Settings: with lhx3_mouse Lhx3, P50481
# Remark: another data set of the same source
row,effect of a mutation on the interaction,Variant
1,disrupting interaction,G262A
2,disrupting interaction,T263A
3,disrupting interaction,P264A

# Variants of: B2
# Settings: with lhx3_mouse Lhx3, P50481
row,effect of a mutation on the interaction,Variant
1,disrupting interaction,L345A

# Variants of: B2
# Settings: with lhx3_mouse Lhx3, P50481
# Remark: another data set of the same source
row,effect of a mutation on the interaction,Variant
1,disrupting interaction,I358A
2,disrupting interaction,M338A

# Variants of: B2
# Settings: with lhx3_mouse Lhx3, P50481
# Remark: another data set of the same source
row,effect of a mutation on the interaction,Variant
1,disrupting interaction,T344A

# Variants of: B2
# Settings: with lhx3_mouse Lhx3, P50481
# Remark: another data set of the same source
row,effect of a mutation on the interaction,Variant
1,disrupting interaction,V339A

# Variants of: B3
# Settings: with isl1_mouse Isl1, P61372
row,effect of a mutation on the interaction,Variant
1,disrupting interaction,R356A;L357A;I358A

# Variants of: B3
# Settings: with isl1_mouse Isl1, P61372
# Remark: another data set of the same source
row,effect of a mutation on the interaction,Variant
1,disrupting interaction,T359A

# Variants of: B3
# Settings: with isl1_mouse Isl1, P61372
# Remark: another data set of the same source
row,effect of a mutation on the interaction,Variant
1,decreasing interaction,T359A;R360A;L361A
